Measurements from patent US20230242671A1 (Eli Lilly, published 2023).

T1: human TIGIT-ECD (human, UniProt Q495A1 22-141)
T1 construct: extracellular domain
T1 sequence (looked up): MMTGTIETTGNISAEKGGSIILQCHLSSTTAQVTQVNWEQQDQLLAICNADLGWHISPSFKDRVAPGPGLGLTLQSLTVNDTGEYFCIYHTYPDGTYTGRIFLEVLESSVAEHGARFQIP

B1: PD-1-TIGIT IgG1 heteromab (KK on PD-1 light chain Fab region only) (bispecific antibody)
heavy 1: QVQLVQSGAEVKKPGSSVKVSCKASGGTFSSYAISWVRYAPGQGLEWMGLIIPSFDTAGYAQKFQGRVAITVDESTSTAYMELSSLRSEDTAVYYCARAEHSSTGTFDYWGRGTLVTVSSASTKGPSVFPLAPSSKSTSGGTAALGCLVADYFPEPVTVSWNSGALTSGVHTFPAVLQSSGLYSLASVVTVPSSSLGTQTYICNVNHKPSNTKVDERVEPKSCDKTHTCPPCPAPEAAGGPSVFLFPPKPKDTLMISRTPEVTCVVVDVSHEDPEVKFNWYVDGVEVHNAKTKPREEQYNSTYRVVSVLTVLHQDWLNGKEYKCKVSNKALAAPIEKTISKAKGQPREPQVYTLPPSREEMTDNQVSLTCLVKGFYPSDIAVEWESNGQPENNYKTTPPVLMSDGSFFLASKLTVDKSRWQQGNVFSCSVMHEALHNHYTQKSLSLSPGK
light 1: DIQMTQSPSSVSASVGDRVTITCRASQGISSWLAWYQRKPGDAPKLLISAASSLQSGVPSRFSGSGSGTDFTLTISSLQPEDFATYYCQQANHLPFTFGGGTKVEIKRTVAAPSVFIFPPSDKQLKSGTARVVCLLNNFYPRKAKVQWKVDNALQSGNSQESVTEQDSKDSTYSLISTLTLSKADYEKHKVYACEVTHKGLSSPVTKSFNRGEC
heavy 2: EVQLVESGGGLVQPGGSLRLSCAASGFDFSSYGVPWVRKAPGKGLEWVGYIDPIFGPTYYADEVKGRFTISADDSKNSLYLQMNSLKTEDTAVYYCARDYSYGYAYALDIWGQGTLVTVSSASTKGPSVFPLAPSSKSTSGGTAALGCLVKDYFPEPVTVSWNSGALTSGVHTFPAVLQSSGLYSLSSVVTVPSSSLGTQTYICNVNHKPSNTKVDKRVEPKSCDKTHTCPPCPAPEAAGGPSVFLFPPKPKDTLMISRTPEVTCVVVDVSHEDPEVKFNWYVDGVEVHNAKTKPREEQYNSTYRVVSVLTVLHQDWLNGKEYKCKVSNKALAAPIEKTISKAKGQPRRPRVYTLPPSREEMTKNQVSLVCLVKGFYPSDIAVEWESNGQPENNYKTTPPVLDSDGSFFLYSVLTVDKSRWQQGNVFSCSVMHEALHNHYTQKSLSLSPGK
light 2: RIVMTQTPLSLSVTPGQPASISCQASQRISPYLAWYLDKPGQPPQLLISRASKLASGVPDRFSGSGSGTDFTLKISRVEAEDVGVYYCQSYYVHTSSGYAFGGGTKVEIKRTVAAPSVFIFPPSDEQLKSGTASVVCLLNNFYPREAKVQWKVDNALQSGNSQESVTEQDSKDSTYSLSSTLTLSKADYEKHKVYACEVTHQGLSSPVTKSFNRGEC
notes: also called PD-1-Tigit IgG1 heteromab (with KK LC Fab region on PD-1 arm only)
B2: cMet-BAH10 IgG1 heteromab (RE on cMet heavy chain Fc region only) (bispecific antibody)
heavy 1: EVQLVESGGGLVQPGGSLRLSCAASGYTFTSYWLHWVRKAPGKGLEWVGMIDPSNSDTRFNPEFKDRFTISADTSKNTAYLQMNSLRAEDTAVYYCATYRSYVTPLDYWGQGTLVTVSSASTKGPSVFPLAPSSKSTSGGTAALGCLVKDYFPEPVTVSWNSGALTSGVATGPAVLQSSGLYSLSSVVTVPSSSLGTQTYICNVNHKPSNTKVDKKVEPKSCDKTHTCPPCPAPEAAGGPSVFLFPPKPKDTLMISRTPEVTCVVVDVSHEDPEVKFNWYVDGVEVHNAKTKPREEQYNSTYRVVSVLTVLHRDWLNGEEYKCKVSNKALPAPIEKTISKAKGQPREPQVYTLPPSREEMTDNQVSLTCLVKGFYPSDIAVEWESNGQPENNYKTTPPVLMSDGSFFLASKLTVDKSRWQQGNVFSCSVMHEALHNHYTQKSLSLSPGK
light 1: RIQMTQSPSSLSASVGDRVTITCKSSQSLLYTSSQKNYLAWYQDKPGKAPKLLIYWASTRESGVPSRFSGSGSGTDFTLTISSLQPEDFATYYCQQYYAYPWTFGQGTKVEIKRTVAAPSVFIFPPSDEQLKSGTASVVCYLNNFYPREAKVQWKVDNALQSGNSQESVTEQDSKDSTYSLWSTLTLSKADYEKHKVYACEVTHQGLSSPVTKSFNRGEC
heavy 2: QVQLVQSGAEVKKPGSSVKVSCKASGYTFTTYYLHWVRYAPGQGLEWMGWIYPGNVHAQYNEKFKGRVTITADKSTSTAYMELSSLRSEDTAVYYCARSWEGFPYWGRGTTVTVSSASTKGPSVFPLAPCSKSTSGGTAALGCLVKDYFPEPVTVSWNSGALTSGVHTFPAVLQSSGLYSLSSVVTVPSSSLGTQTYICNVNHKPSNTKVDKKVEPDSGDKTHTCPPCPAPEAAGGPSVFLFPPKPKDTLMISRTPEVTCVVVDVSHEDPEVKFNWYVDGVEVHNAKTKPREEQYNSTYRVVSVLTVLHQDWLNGKEYKCKVSNKALPAPIEKTISKAKGQPRRPRVYTLPPSREEMTKNQVSLVCLVKGFYPSDIAVEWESNGQPENNYKTTPPVLDSDGSFFLYSVLTVDKSRWQQGNVFSCSVMHEALHNHYTQKSLSLSPGK
light 2: DIQMTQSPSSLSASVGDRVTITCKASQNVGINVAWYQRKPGDAPKSLISSASYRYSGVPSRFSGSGSGTDFTLTISSLQPEDFATYFCQQYDTYPFTFGQGTKVEIKRTVAAPSVFIFPPSKEQLKSGTASVVCLLNNFYPREAKVQWKVDNALQSGNSQESVTEQDSKDSTYSLSSTLTLSKADYEKHKVYACEVTHQGLSSPVTKSFNRGEC
notes: also called cMet-BAH10 IgG1 heteromab (with RE HC Fc format on cMet arm only)
B3: cMet mAb (RE on both HCs) (antibody, human IgG1, kappa, L234A L235A)
heavy: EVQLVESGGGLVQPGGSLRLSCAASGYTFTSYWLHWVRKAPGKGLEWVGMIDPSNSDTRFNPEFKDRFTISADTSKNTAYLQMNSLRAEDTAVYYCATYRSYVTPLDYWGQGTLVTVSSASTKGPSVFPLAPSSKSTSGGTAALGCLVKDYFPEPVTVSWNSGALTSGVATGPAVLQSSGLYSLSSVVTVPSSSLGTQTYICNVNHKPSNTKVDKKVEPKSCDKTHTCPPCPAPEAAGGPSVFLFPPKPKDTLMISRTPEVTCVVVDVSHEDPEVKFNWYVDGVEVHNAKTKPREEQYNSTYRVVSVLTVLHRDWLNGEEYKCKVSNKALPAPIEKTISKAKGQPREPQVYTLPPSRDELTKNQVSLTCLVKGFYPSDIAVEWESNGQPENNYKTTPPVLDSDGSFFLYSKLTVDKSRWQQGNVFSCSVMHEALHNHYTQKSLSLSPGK
light: RIQMTQSPSSLSASVGDRVTITCKSSQSLLYTSSQKNYLAWYQDKPGKAPKLLIYWASTRESGVPSRFSGSGSGTDFTLTISSLQPEDFATYYCQQYYAYPWTFGQGTKVEIKRTVAAPSVFIFPPSDEQLKSGTASVVCYLNNFYPREAKVQWKVDNALQSGNSQESVTEQDSKDSTYSLWSTLTLSKADYEKHKVYACEVTHQGLSSPVTKSFNRGEC
notes: IgG1 / kappa; also called cMet parental mAb (with RE HC Fc format on both HCs)

Legend:
[1] = target: T1, human TIGIT-ECD; assay: ELISA, antibody at 1 µg/mL captured by anti-human-Fc, antigen titrated
Description: (§1) Binding affinity of exemplified multispecific binding proteins provided herein is assessed via ELISA. Briefly, 384-well flat bottom Elisa plates are coated with 1 ug/mL anti-human-Fc protein at 20 ul/well and incubated overnight at 4° C. The following day, plates are washed 3× with wash buffer (0.05% PBS-Tween 20) and blocked for 1 hr with blocking buffer (casein, 60 μL/well) at room temperature (RT). Plates are washed 3× with wash buffer, and binding proteins as shown in Table 10 are added at 1 μg/mL in triplicates at 20 uL/well in DPBS (Dulbecco's HyClone). Plates are incubated at RT for 1 hr, washed 3× with wash buffer, and titrated antigens are added at 20 ul/well and incubated for 60 min at RT. Plates are washed 3×, and 20 uL/well NAAP substrate is added and incubated for 20 min. Plates are washed 3×, and PNPP substrate is added at 20 uL/well, and reactions are stopped, and optical density is measured using a colorimetric microplate reader set to 405 nm.

[2] = target: T2, human PD-1-ECD (human, UniProt Q15116 25-170); assay: as above
T2 construct: extracellular domain
T2 sequence (Q15116 25-170): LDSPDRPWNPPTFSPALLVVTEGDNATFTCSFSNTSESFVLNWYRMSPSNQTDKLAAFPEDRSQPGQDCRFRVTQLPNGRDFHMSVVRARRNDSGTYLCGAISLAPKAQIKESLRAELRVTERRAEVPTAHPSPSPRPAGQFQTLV
Description: as §1

[3] = target: T3, CaptureSelect Kappa XL ligand; assay: CaptureSelect Kappa XL affinity column after Protein A
T3 construct: also called Biotin-KappaXL; Kappa XL column
Excerpt: Multispecific binding proteins of the present disclosure, in clarified medium or recovered from Protein A purification, may be subjected to a second purification step using a CaptureSelect™ Kappa XL (Thermo Fisher Cat. #494321001) pre-packed affinity column. Briefly, multispecific binding proteins of the present disclosure recovered from Protein A purification are subjected to a Kappa XL affinity column which has been equilibrated with a compatible buffer, such as phosphate buffered saline (PBS) at pH 7.4. The column is then washed to remove nonspecific binding components. The bound multispecific binding protein is eluted, for example, by pH gradient (such as 20 mM Tris buffer pH 7.0 to 10 mM sodium citrate buffer pH 3.0). Binding protein fractions are detected, such as by UV absorbance or SDS-PAGE, and then are pooled.
Percent flow through (% F T) and percent elution of exemplified heteromabs of the present disclosure following kappa XL column purification essentially as described herein is assessed. Briefly, various antibody formats (as set forth in Table 3) are subjected to Kappa XL column. Flow through material is considered to comprise of impurities, such as homodimers, or misassembled antibodies, whereas the Kappa XL ligand bound material (elution material) is considered to be the correctly assembled bispecific antibody.

[4] = target: T4, Protein A (UniProt P38507 37-327, biotin (site not stated)); assay: ELISA, antibody titrated on goat anti-human-kappa, Biotin-Protein A at 0.5 ug/ml
T4 construct: Reagent; also called Biotin-Protein A; Protein A ligand
Description: (§2) Binding of the heavy chain Fc region formats of Table 1b for exemplified IgG heteromabs to Protein A ligand may be assessed via ELISA. Briefly, 96-well flat bottom Elisa plates are coated with 2 ug/mL goat anti-human-kappa protein at 100 ul/well and incubated overnight at 4° C. The following day, plates are washed 3× with wash buffer 0.05% PBS-Tween 20 (PBS-T)) and blocked for 1 hr with blocking buffer (casein, 200 µL/well) at room temperature (RT). Plates are washed 3× with wash buffer, and binding proteins (as shown in Table 4) are added to individual wells at 10 μg/mL and serially diluted 1:3, at a volume of 100 uL/well in PBS-T. Plates are incubated at RT for 1 hr, and washed 3× with wash buffer. Biotin-Protein A at 0.5 ug/ml is added at 100 uL/well and plates are incubated for 1 hr at RT, washed 3×, and 100 uL/well of streptavidin labeled alkaline phosphatase (SA-AP) is added to each well. Plates are incubated 30 min at RT. Plates are then washed 3×, and 100 uL/well of p-Nitrophenyl Phosphate, Disodium Salt (PNAP)(Thermo Fisher Scientific) substrate is added. Reactions are stopped and optical density is measured using a colorimetric microplate reader set to 405 nm.

[5] = target: T4, Protein A; assay: ELISA, Biotin-Protein A
Description: as §2

| Binder | EC50 [1] | EC50 [2] | % Elution [3] | % Flow Through (FT) [3] | EC50 [4] | fold decrease in binding against cMet-BAH10 IgG1 heteromab [5] | fold decrease of binding affinity against parental [5] |
| --- | --- | --- | --- | --- | --- | --- | --- |
| B1 | 0.0182 nM | 0.0093 nM | 74.8% | 25.2% |  |  |  |
| B2 |  |  |  |  | 0.56 nM | ~1.2 fold |  |
| B3 |  |  |  |  | 0.98 nM |  | ~2 fold |
